PMC6212786

Experiments:
Assay in all cases: fluorescence anisotropy
[1] = target: T1, T4 DNA ligase DBD fragment (Bacteriophage T4 (ATCC), UniProt P00970 1-129)
T1 sequence: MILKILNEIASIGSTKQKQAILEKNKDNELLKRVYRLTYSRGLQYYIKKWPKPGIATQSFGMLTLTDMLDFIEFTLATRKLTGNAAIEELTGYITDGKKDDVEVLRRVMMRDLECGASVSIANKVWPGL

[2] = target: Human DNA ligase 1 (hLig1) (human, UniProt P18858 233-919)
[3] = target: T2, T4 DNA ligase (gp30), full-length wild type (Bacteriophage T4 (ATCC), UniProt P00970 1-487)
T2 sequence: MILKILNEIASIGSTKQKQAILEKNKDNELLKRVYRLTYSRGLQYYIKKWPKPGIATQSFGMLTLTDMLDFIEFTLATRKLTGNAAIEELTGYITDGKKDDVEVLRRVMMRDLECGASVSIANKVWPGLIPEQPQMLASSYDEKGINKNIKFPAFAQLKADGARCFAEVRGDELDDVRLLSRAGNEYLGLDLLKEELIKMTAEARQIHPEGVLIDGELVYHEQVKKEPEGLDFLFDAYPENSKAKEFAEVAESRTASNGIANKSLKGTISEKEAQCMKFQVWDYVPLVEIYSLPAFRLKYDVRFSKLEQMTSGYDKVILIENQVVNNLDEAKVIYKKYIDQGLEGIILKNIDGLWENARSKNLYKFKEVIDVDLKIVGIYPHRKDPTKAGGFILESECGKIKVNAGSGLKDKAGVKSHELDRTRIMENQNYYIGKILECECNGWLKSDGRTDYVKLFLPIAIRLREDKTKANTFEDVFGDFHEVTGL

[4] = target: T3, T4 DNA ligase NTase-OB fragment (2CT) (Bacteriophage T4 (ATCC), UniProt P00970 136-487)
T3 sequence: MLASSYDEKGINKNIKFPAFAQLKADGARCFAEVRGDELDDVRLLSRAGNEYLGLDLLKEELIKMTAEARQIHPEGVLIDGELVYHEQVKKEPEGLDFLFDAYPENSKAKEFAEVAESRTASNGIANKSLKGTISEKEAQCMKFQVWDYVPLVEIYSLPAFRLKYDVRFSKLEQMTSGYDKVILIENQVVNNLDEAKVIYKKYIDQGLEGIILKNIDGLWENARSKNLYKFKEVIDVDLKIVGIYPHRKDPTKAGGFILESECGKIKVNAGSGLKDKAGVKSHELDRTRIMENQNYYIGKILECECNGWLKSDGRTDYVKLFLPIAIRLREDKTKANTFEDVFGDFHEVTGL

Chain of Human DNA ligase 1 (hLig1) (P18858 233-919): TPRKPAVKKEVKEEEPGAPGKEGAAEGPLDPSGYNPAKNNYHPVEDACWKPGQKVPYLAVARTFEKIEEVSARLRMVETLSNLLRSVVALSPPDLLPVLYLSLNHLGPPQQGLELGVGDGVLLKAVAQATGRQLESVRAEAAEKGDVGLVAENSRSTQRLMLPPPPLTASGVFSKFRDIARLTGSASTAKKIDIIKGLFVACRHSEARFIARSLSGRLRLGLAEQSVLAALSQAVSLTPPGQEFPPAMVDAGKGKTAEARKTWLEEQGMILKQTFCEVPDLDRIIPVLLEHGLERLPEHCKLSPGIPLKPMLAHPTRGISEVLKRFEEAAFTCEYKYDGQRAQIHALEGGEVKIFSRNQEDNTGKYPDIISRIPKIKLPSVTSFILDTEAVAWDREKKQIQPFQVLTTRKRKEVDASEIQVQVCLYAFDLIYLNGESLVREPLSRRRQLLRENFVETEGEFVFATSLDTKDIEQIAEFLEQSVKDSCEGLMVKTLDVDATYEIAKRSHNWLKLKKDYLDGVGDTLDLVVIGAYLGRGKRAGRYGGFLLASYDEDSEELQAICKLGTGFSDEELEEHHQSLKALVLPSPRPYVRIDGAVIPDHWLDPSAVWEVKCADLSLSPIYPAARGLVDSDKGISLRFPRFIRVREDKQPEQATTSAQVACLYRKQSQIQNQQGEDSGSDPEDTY

B1: nicked 32-bp dsDNA probe (dsDNA)
DNA 1: GGTAGCCACAGCCAGTCAGCCGATTGCGGGAC
DNA 2: GTCCCGCAATCGGCTG
DNA 3: ACTGGCTGTGGCTACC
modifications: 5'-phosphate on S6 at the nick
B1 gave a Kd [1] of 138 µM, a Kd [2] of 7.7 µM and a Kd [3] of 6.3 µM. It also gave a Kd [4] of 23 µM.

B2: intact (unnicked) 32-bp dsDNA probe (dsDNA)
DNA 1: B1 DNA 1
DNA 2: GTCCCGCAATCGGCTGACTGGCTGTGGCTACC
B2 was tested, and the Kd [1] was 119 µM, the Kd [2] was 11 µM and the Kd [3] was 6.6 µM. For the same binder, the Kd [4] was 17 µM.
